Results on three molecules are retold here after article PMC3897428 (PLoS ONE, 2014).

Holding throughout (settings): one partner purified
For experiment [1], the target named is T1, African green monkey uPAR on COS-1 cells (Chlorocebus aethiops (COS-1 cells), UniProt Q9GK79).
T1 construct: also called AGM uPAR; source: endogenous, on COS-1 cells
As to the kind of experiment: flow cytometry on cells; cells incubated with ATN-658 (10 µg/mL) 1 h at 4°C in FACS buffer, Alexa Fluor 488 secondary antibody. A general note: Flow cytometry measures light scatter and fluorescence of single cells or particles in a stream.

Experiment [2] has as its target T2, chimpanzee uPAR in tissues (chimpanzee (endogenous in tissues), UniProt Q9GK80).
T2 construct: source: endogenous, chimpanzee tissues
As to the kind of experiment: immunostaining of cells or tissue; immunohistochemistry of chimpanzee tissues with ATN-658; no figure or methods given.

In experiment [3] the target is T1, African green monkey uPAR on COS-1 cells. The experiment is described as follows: whole cell saturation binding assay; adherent cells on gelatin coated 12-well plates, varying concentrations of biotin-labeled ATN-658 in HBSS/0.1% BSA, 1 h at room temperature, HRP-streptavidin and OPD.
Experiment [4] addresses T3, mouse uPAR on B16 melanoma cells (Mus musculus (B16 melanoma), UniProt P35456).
T3 construct: source: endogenous, on B16 cells
The experiment is described as above.

Experiment [5] addresses T4, African green monkey (AGM) suPAR (Chlorocebus aethiops (COS-1 cells), UniProt Q9GK79).
T4 construct: soluble uPAR (suPAR) of African green monkey (Cercopithecus aethiops), cloned from COS-1 cells by PCR; numbers count on: the mature protein; Parent of the nine point mutants; also called monkey suPAR; source: Drosophila S2 cells, expressed as described for human suPAR
As to the kind of experiment: ELISA; capture ELISA: suPAR clones from culture supernatant captured by anti-V5 antibody on the plate, biotin-ATN-658, streptavidin-HRP, OPD; saturation binding.

Experiment [6] addresses T5, human uPAR on the surface of cells (PC-3, HeLa) (Homo sapiens, UniProt Q03405).
T5 construct: source: endogenous, on PC-3 and HeLa cells
As to the kind of experiment: radioligand binding; iodinated ATN-658 on the surface of HeLa cells.

T1 sequence (Q9GK79 whole entry, looked up): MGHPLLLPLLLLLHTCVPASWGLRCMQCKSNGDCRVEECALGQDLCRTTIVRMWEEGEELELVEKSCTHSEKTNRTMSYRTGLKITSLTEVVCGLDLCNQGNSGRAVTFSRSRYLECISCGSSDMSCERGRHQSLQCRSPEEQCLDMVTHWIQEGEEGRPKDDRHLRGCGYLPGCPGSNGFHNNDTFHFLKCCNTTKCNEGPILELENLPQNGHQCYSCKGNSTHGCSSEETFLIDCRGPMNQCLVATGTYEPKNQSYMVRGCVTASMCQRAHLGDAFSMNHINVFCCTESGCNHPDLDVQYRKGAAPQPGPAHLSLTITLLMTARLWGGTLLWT
T3 sequence (P35456 24-298): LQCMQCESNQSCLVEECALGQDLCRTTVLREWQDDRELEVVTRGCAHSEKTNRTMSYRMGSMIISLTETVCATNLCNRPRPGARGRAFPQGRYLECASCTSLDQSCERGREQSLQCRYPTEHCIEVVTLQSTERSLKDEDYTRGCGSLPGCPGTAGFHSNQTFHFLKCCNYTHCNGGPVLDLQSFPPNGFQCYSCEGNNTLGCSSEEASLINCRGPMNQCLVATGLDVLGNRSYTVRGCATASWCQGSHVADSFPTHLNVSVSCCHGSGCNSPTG
T2 sequence (Q9GK80 23-305): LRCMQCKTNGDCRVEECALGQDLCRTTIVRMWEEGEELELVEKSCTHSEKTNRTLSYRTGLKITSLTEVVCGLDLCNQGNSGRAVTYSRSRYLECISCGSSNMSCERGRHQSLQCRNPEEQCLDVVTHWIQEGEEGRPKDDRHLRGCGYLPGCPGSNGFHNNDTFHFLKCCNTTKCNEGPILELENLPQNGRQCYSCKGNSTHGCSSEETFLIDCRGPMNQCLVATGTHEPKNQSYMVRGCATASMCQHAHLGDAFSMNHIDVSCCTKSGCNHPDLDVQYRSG
T5 sequence (Q03405 23-305): as the sequence (Q9GK80 23-305) above, with M31L, N102D, N117S counted along it
T4 sequence (Q9GK79 whole entry, looked up): as the sequence (Q9GK79 whole entry, looked up) above

B1: ATN-658 monoclonal antibody (antibody, V domains shown)
VH: EVQLQQSGPELVKTGASVKISCKASGYSFTSYYMHWVKQSHGKSLEWIGEINPYNGGASYNQKIKGRATFTVDTSSRTAYMQFNSLTSEDSAVYYCARSIYGHSVLDYWGQGTSVSVSS
VL: not shown
notes: Fab part as the heavy chain of m4, followed by the rest of a mouse IgG1 heavy chain; as the light chain of m4 (kappa); Mouse IgG1 kappa; source: mouse hybridoma tissue culture supernatant, purified (protein-A Sepharose)
Consider B1, for which the results for the binding result in experiment [1] and in experiment [2] were “no binding (tested: 10 µg/mL)” and “binds”, respectively.

B2: Biotin-ATN-658 (antibody, V domains shown)
VH: B1 VH
VL: not shown
notes: as the heavy chain of m1; as the light chain of m1; Mouse IgG1 kappa
For B2, the figures for the binding result in experiment [3], in experiment [4] and in experiment [5] were “no binding”, “no binding” and “no binding (tested: 1 µg/mL biotin-ATN-658 (methods))”, respectively.

B3: iodinated ATN-658 (antibody, V domains shown)
VH: B1 VH
VL: not shown
notes: as the heavy chain of m1; as the light chain of m1; Mouse IgG1 kappa; source: mouse hybridoma tissue culture supernatant, purified (protein-A Sepharose), iodinated
For the molecule B3, the Kd (as a rule, the concentration at which binding is half-saturated) in experiment [6] is around 5 nM.
